Experiments:
Test in all cases: peptide array, immobilised linear 15-mers
[1] = target: T1, ANGPTL4-derived peptide P29 (human)
T1 peptide: KAQNSRIQQLFHKVA
Procedure: (§1) The ability of selected antibodies of invention, namely MOR022765 and MOR022770, to bind to linear 15-amino-acid peptides derived from the N-terminal coiled coil domain of human ANGPTL4 was tested. The peptides were immobilized on a glass surface, and the ability of MOR022765 and MOR022770 to bind to the immobilized peptides was evaluated using experimental methods optimized for linear peptide epitope mapping at JPT Peptide Technologies (Berlin, Germany).

[2] = target: T2, ANGPTL4-derived peptide P33 (human)
T2 peptide: KVAQQQRHLEKQHLR
Procedure: as §1

[3] = target: T3, ANGPTL4-derived peptide P1 (human)
T3 construct: linear 15-amino-acid peptide derived from the N-terminal coiled coil domain of human ANGPTL4
T3 peptide: GPVQSKSPRFASWDE
Procedure: as §1

[4] = target: T4, ANGPTL4-derived peptide P15 (human)
T4 construct: printed with S where human ANGPTL4 has C
T4 peptide: ALERRLSASGSASQG
Procedure: as §1

[5] = target: T5, ANGPTL4-derived peptide P38 (human)
T5 peptide: IQHLQSQFGLLDHKH
Procedure: as §1

[6] = target: T6, ANGPTL4-derived peptide P39 (human)
T6 peptide: LQSQFGLLDHKHLDH
Procedure: as §1

[7] = target: T7, ANGPTL4-derived peptide P43 (human)
T7 peptide: KHLDHEVAKPARRKR
Procedure: as §1

[8] = target: T8, ANGPTL4-derived peptide P34 (human)
T8 peptide: QQQRHLEKQHLRIQH
Procedure: as §1

[9] = target: T9, ANGPTL4-derived peptide P17 (human)
T9 construct: printed with S where human ANGPTL4 has C
T9 peptide: SASGSASQGTEGSTD
Procedure: as §1

[10] = target: T10, ANGPTL4-derived peptide P41 (human)
T10 peptide: LLDHKHLDHEVAKPA
Procedure: as §1

[11] = target: T11, ANGPTL4-derived peptide P31 (human)
T11 peptide: IQQLFHKVAQQQRHL
Procedure: as §1

[12] = target: T12, ANGPTL4-derived peptide P23 (human)
T12 peptide: APESRVDPEVLHSLQ
Procedure: as §1

[13] = target: T13, ANGPTL4-derived peptide P21 (human)
T13 peptide: STDLPLAPESRVDPE
Procedure: as §1

[14] = target: T14, ANGPTL4-derived peptide P28 (human)
T14 peptide: TQLKAQNSRIQQLFH
Procedure: as §1

[15] = target: T15, ANGPTL4-derived peptide P11 (human)
T15 peptide: REHAERTRSQLSALE
Procedure: as §1

[16] = target: T16, ANGPTL4-derived peptide P18 (human)
T16 construct: printed with S where human ANGPTL4 has C
T16 peptide: GSASQGTEGSTDLPL
Procedure: as §1

[17] = target: T17, ANGPTL4-derived peptide P42 (human)
T17 peptide: HKHLDHEVAKPARRK
Procedure: as §1

[18] = target: T18, ANGPTL4-derived peptide P5 (human)
T18 peptide: WDEMNVLAHGLLQLG
Procedure: as §1

[19] = target: T19, ANGPTL4-derived peptide P40 (human)
T19 peptide: QFGLLDHKHLDHEVA
Procedure: as §1

[20] = target: T20, ANGPTL4-derived peptide P4 (human)
T20 peptide: FASWDEMNVLAHGLL
Procedure: as §1

[21] = target: T21, ANGPTL4-derived peptide P35 (human)
T21 peptide: RHLEKQHLRIQHLQS
Procedure: as §1

[22] = target: T22, ANGPTL4-derived peptide P3 (human)
T22 peptide: SPRFASWDEMNVLAH
Procedure: as §1

[23] = target: T23, ANGPTL4-derived peptide P30 (human)
T23 peptide: NSRIQQLFHKVAQQQ
Procedure: as §1

[24] = target: T24, ANGPTL4-derived peptide P25 (human)
T24 peptide: DPEVLHSLQTQLKAQ
Procedure: as §1

[25] = target: T25, ANGPTL4-derived peptide P2 (human)
T25 peptide: QSKSPRFASWDEMNV
Procedure: as §1

[26] = target: T26, ANGPTL4-derived peptide P10 (human)
T26 peptide: QGLREHAERTRSQLS
Procedure: as §1

[27] = target: T27, ANGPTL4-derived peptide P26 (human)
T27 peptide: VLHSLQTQLKAQNSR
Procedure: as §1

[28] = target: T28, ANGPTL4-derived peptide P36 (human)
T28 peptide: EKQHLRIQHLQSQFG
Procedure: as §1

[29] = target: T29, ANGPTL4-derived peptide P20 (human)
T29 peptide: TEGSTDLPLAPESRV
Procedure: as §1

[30] = target: T30, ANGPTL4-derived peptide P24 (human)
T30 peptide: SRVDPEVLHSLQTQL
Procedure: as §1

[31] = target: T31, ANGPTL4-derived peptide P37 (human)
T31 peptide: HLRIQHLQSQFGLLD
Procedure: as §1

[32] = target: T32, ANGPTL4-derived peptide P8 (human)
T32 peptide: GLLQLGQGLREHAER
Procedure: as §1

[33] = target: T33, ANGPTL4-derived peptide P12 (human)
T33 peptide: AERTRSQLSALERRL
Procedure: as §1

[34] = target: T34, ANGPTL4-derived peptide P16 (human)
T34 construct: printed with S where human ANGPTL4 has C
T34 peptide: RRLSASGSASQGTEG
Procedure: as §1

[35] = target: T35, ANGPTL4-derived peptide P27 (human)
T35 peptide: SLQTQLKAQNSRIQQ
Procedure: as §1

Measured: binding result

B1: MOR022765 (antibody, human IgG1, lambda, V domains shown)
VH: EVQLVQSGAEVKKPGESLKISCKGSGYSFSTYWISWVRQMPGKGLEWMGIIDPSSSDTRYSPSFQGQVTISADKSISTAYLQWSSLKASDTAMYYCARVYGYVYMDVWGQGTLVTVSS
VL: SYELTQPLSVSVALGQTARITCSGDNLGKKYAYWYQQKPGQAPVLVIYDKTKRPSGIPERFSGSNSGNTATLTISRAQAGDEADYYCASYDWYSSSYVFGGGTKLTVLG
notes: human IgG1
no binding: [1] | [2] | [3] | [4] | [5] | [6] | [7] | [8] | [9] | [10] | [11] | [12] | [13] | [14] | [15] | [16] | [17] | [18] | [19] | [20] | [21] | [22] | [23] | [24] | [25] | [26] | [27] | [28] | [29] | [30] | [31] | [32] | [33] | [34] | [35]

Reference: patent publication US20160108110A1 (Novartis, published 2016)
